{"source": "paper PMC2171502", "about": "(The Journal of Cell Biology, 2005)", "binders": {"B1": {"name": "GST-Myo1p-23A (GST fused to the TH2-SH3-CA domains of the S. pombe myosin-I Myo1p tail) (domain or fragment, UniProt Q9Y7Z8 965-1217, looked up)", "chain": "TSKSKPFPRLATGGSTAAARGPRPVVQNKPAATKPVSMPAAKSKPAPMANPVSTAQQTQNRPPAPAMQARPNTTQAAAPVTSTTTTIKQATTVSASKPAPSTVTSAASSPSNISKPSAPVANNVSKPSAVPPPPPPPPAEVEKKDLYLALYDFAGRSPNEMTIKKDEIIEIVQKEPSGWWLALKNGAEGWVPATYVTEYKGSTPQTTASSTNVAAQANNNASPAEVNNLAGSLADALRMRASAVRGSDEEEDW"}, "B2": {"name": "Vrp1p-His (full-length S. pombe verprolin Vrp1p with a COOH-terminal His-tag) (natural protein)", "chain": "MAPAPPPPPPAPAPAAAAPAPPLMTGDRSALLNSIQKGKKLKKATTNDRSAPVVGGGVVGERKSNTPKSFAAPPVPTGAPSLPTSSNNTQQAEERPSMPALGGLFAGGMPKLRHIGKSSASAAPPSAPAPPTPQSELRPPTSAPPRPSIPPPSPASAPPIPSKAPPIPSSLPPPAQPAAPVKSPPSAPSLPSAVPPMPPKVPPPPLSQAPVANTSSRPSSFAPPAGHAPNVTSESPKFPNRGPSIPSASVPPVPPSSYVLQQRPNRVDDHGRFHFKDDSYLPIPHPFLGVPKVYRGGSGTTVPLNLSSF"}}, "key": {"[1]": {"molecular_target": "B2", "assay": "pull-down"}, "actin monomers": {"molecular_target": "actin monomers (UniProt P68135 1-377)", "assay": "pull-down"}}, "note": "Where “and” joins values, the source holds several entries; their conditions need not be identical. Equal values may be shown once.", "data": [{"binder": "B1", "values": [{"measurement": "Kd", "setting": "[1]", "value": "4.6 µM and 5.6 µM"}]}, {"binder": "B2", "values": [{"measurement": "Kd", "setting": "actin monomers", "value": "1 µM and 0.9 µM and 0.8 µM"}]}]}
